Results on 3 molecules are retold here after paper PMC10447241 (Nature, 2023).

Holding throughout (assay): FRET or BRET; GCGR–Rluc8 (or mutants) and βarr1–GFP2 (or mutants) co-transfected 1:1 in HEK293F cells; glucagon 1 pM to 10 μM; HBSS, 20 mM HEPES pH 7.4; coelenterazine 400a; EC50 is that of glucagon in inducing the BRET signal
For experiment [1], the target named is the GCGR mutations R413A and R414A (as a group, for the printed range of the EC50 shift).
Experiment [2] deals with wild-type GCGR with Rluc8 at the C terminus (human) (UniProt P47871).
For experiment [3], the target named is T1, wild-type GCGR with Rluc8 at the C terminus (human, UniProt P47871 26-477).
T1 construct: glucagon receptor (GCGR), human, wild type; also called WT; source: HEK293F, transfected, in living cells; not shown: FLAG, N-terminal, kept; Rluc8, C-terminal, kept
Conditions: partners not purified.

Chain of wild-type GCGR with Rluc8 at the C terminus (human) (P47871 26-477): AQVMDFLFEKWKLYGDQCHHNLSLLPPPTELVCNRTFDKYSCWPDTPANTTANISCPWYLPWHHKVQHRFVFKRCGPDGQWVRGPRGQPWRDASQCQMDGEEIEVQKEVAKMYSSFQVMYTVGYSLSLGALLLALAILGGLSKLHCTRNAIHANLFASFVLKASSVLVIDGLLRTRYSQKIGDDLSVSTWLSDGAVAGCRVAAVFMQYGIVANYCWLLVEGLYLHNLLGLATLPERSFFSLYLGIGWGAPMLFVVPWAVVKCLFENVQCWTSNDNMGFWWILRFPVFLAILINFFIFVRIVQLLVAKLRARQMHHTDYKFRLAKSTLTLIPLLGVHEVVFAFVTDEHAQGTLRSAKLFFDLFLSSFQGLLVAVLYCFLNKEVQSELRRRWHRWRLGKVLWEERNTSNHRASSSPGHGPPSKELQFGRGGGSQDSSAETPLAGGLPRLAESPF
T1 sequence (P47871 26-477): as above

In the case of “human βarr1 with GFP2 at the C terminus (from UniProt P49407 1-418) (natural protein)”, the fold shift of the glucagon EC50 in the GCGR–βarr1 BRET, mutant against wild type in experiment [1] fell in the range of 112 to 205 fold.

As for “ΔFL, the βarr1 mutant with the turn region of the finger loop removed, with GFP2 at the C terminus (from UniProt P49407 1-418) (natural protein)”, in experiment [2], the fold shift of the glucagon EC50 in the GCGR–βarr1 BRET, mutant against wild type was found to be 24 fold.

B1: βarr1 3Q (K232Q, R236Q and K250Q) with GFP2 at the C terminus (natural protein, human, UniProt P49407 1-418, looked up)
chain: MGDKGTRVFKKASPNGKLTVYLGKRDFVDHIDLVDPVDGVVLVDPEYLKERRVYVTLTCAFRYGREDLDVLGLTFRKDLFVANVQSFPPAPEDKKPLTRLQERLIKKLGEHAYPFTFEIPPNLPCSVTLQPGPEDTGKACGVDYEVKAFCAENLEEKIHKRNSVRLVIRKVQYAPERPGPQPTAETTRQFLMSDKPLHLEASLDKEIYYHGEPISVNVHVTNNTNKTVKKIQISVQQYADICLFNTAQYQCPVAMEEADDTVAPSSTFCKVYTLTPFLANNREKRGLALDGKLKHEDTNLASSTLLREGANREILGIIVSYKVKVKLVVSRGGLLGDLASSDVAVELPFTLMHPKPKEEPPHREVPENETPVDTNLIELDTNDDDIVFEDFARQRLKGMKDDKEEEEDGTGSPQLNNR
notes: β-arrestin 1 (βarr1), human, triple mutant of the wild type; source: HEK293F, transfected, in living cells; not shown: GFP2, C-terminal, kept
For the molecule B1, the “fold drop of glucagon potency in the GCGR–βarr1 BRET, mutant against wild type” value in experiment [3] was 15 fold.
